One series has as its target T1, marine EGFR-Ex-Fc (Mus musculus, UniProt Q01279).
T1 construct: the extracellular domain of human EGFR-Fc fusion protein (EGFR-Ex-Fc)
In words: Recognition of murine EGFR-Ex-Fc by EGFR-s10. In kind it is binding. The text has this:
(§1) EGFR s10 recognized both human and marine EGFR-Ex-Fc. This feature eliminates any requirements for a surrogate molecule to evaluate toxicity in murine platforms. After validating internalization of EGFR-s10 in target cells, we fabricated LTLs loaded with doxorubicin or vinorelbine (EGFR-s10-LD and EGFR-s10-LV, respectively) using a thin film method and PEGylation of EGFR-s10. […] The zeta-potentials were all higher than required to prevent formation of aggregates. […] In summary, EGFR-specific binding of EGFR-s10 was retained through chemical processing, and the resulting LTLs fulfilled the requirements of anti-neoplastic liposomal drugs, indicating suitability for further development.

Series [1] relates to Ca9-22 cells. In words: Endocytosis assay of soluble EGFR-s10 scFv, Ca9-22. It counts as cell-based, human. As to conditions: 30 min, confocal microscopy. Here is the method: (§2) Cells were incubated with EGFR-s10 for 30 min at 4° C. or 37° C. Following a PBS wash, the cells were fixed with 2% paraformaldehyde and permeabilized with 0.1% TRITON® X-100. Blocking was accomplished by adding 3% BSA. Mouse ANTI-FLAG antibodies were added to the cells and labeled with FITC anti-mouse IgG. Nuclei were stained with DAPI, and cells were observed on a confocal microscope (TCS-SP5, Leica).
(§3) We produced soluble scFv from EGFR-PC10 and designated it as EGFR-s10. Target binding and internalization are essential requirements of LTL-targeting moieties. We investigated these features of EGFR-s10 in SCCHN cancer cell lines. FaDu cells and Ca9-22 cells were separately incubated with EGFR-s10 at 4° C. or 37° C. for 30 min and compared with isotypic IgG controls. […] (FIGS. 3A-B).

Another series addresses T2, human EGFR-Ex-Fc (Homo sapiens, UniProt P00533).
T2 construct: the extracellular domain of human EGFR-Fc fusion protein (EGFR-Ex-Fc); purchased R&D system
In words: Recognition of human EGFR-Ex-Fc by EGFR-s10. It counts as binding.
Description: as §1

Series [2] relates to FaDu cells. In words: Endocytosis assay of soluble EGFR-s10 scFv, FaDu. In kind it is cell-based, human. As to conditions: 30 min, confocal microscopy. The method, then:
as §2, §3

The nature of series [3]: Zeta-potential by laser Doppler electrophoresis. It counts as physicochemical. Here is the method: (§4) The average particle size of liposomes was determined by dynamic light scattering (DLS) at 25° C. using Malvern Zetasizer Nano ZS (Malvern instruments) with a 633-nm laser and a detection angle of 90°. The zeta-potential of the liposomes was measured using laser Doppler electrophoresis on the Malvern Zetasizer Nano ZS.

Series [4] relates to FaDu cells. In words: In vitro cytotoxicity assay (WST-1), FaDu. It counts as cell-based, human. The method, then: (§5) FaDu and Ca9-22 cells were incubated with various concentrations of non-targeted liposomal drugs, or EGFR-s10-conjugated LTLs for 4, 8, 16 and 24 hr. The medium was replaced with complete medium for 48 hr, and 4-[3-(4-iodophenyl)-2-(4-nitrophenyl)-2H-5-tetrazolio]-1,3-benzene disulfonate (WST-1) was added at 0.5 mg/ml. After the cells were incubated for 3 hr at 37° C., the reaction products' absorbance at 440-nm was measured, and half maximal inhibitory concentrations (IC50) were calculated.
(§6) The cytotoxicity of EGFR-s10-conjugated LTLs was compared to that of non-targeting counterparts in human SCCHN cell lines. Cell viability was analyzed by the WST-1 assay and calculated as percentage of living cells.

The subject of series [5] is Ca9-22 subcutaneous xenograft. In words: Murine subcutaneous Ca9-22 xenograft therapeutic assay. In kind it is in vivo. As to conditions: 1.5 mg/kg twice a week for 4 weeks. Here is the method: FaDu and Ca9-22 cells were inoculated s.c. into the flanks of 8- to 10-week-old Nod-SCID mice (1×10^6 cells/mouse). The diameters of the resulting tumors were measured twice per week, and tumor volume was calculated as follows: large diameter×(small diameter)^2×0.52. When tumors reached a mean volume of 350 mm^3, mice with similarly sized tumors were randomized into treatment cohorts (n=8 mice/group). Therapeutic regimens were injected intravenously (i.v.) as PBS, non-targeted liposomal drugs, or EGFR-s10 conjugated LTLs at 1 mg/kg, twice a week for 4 weeks, with a cumulative dose of 8 mg/kg for each group. The tumor volume was monitored twice a week. Premature death endpoints included weight loss greater than 5 g, inability to eat, or tumor volume exceeding 2000 mm^3.
The LTL treatment confers a statistically significant survival advantage over the non-targeting liposome (p=0.00153) and the median survival time of LTL group was 1.5-times longer than that of NTL group (94 days versus 60 days, respectively; FIG. 5D, upper and lower panels). We also tested singlet vinorelbine treatment in forms of free drug, NTL or LTL, with a dose of 1.5 mg/kg twice a week for 4 weeks in subcutaneously Ca9-22-xenografted NOD/SCID mice.

Series [6] in a line: Particle size by dynamic light scattering. In kind it is physicochemical. As to conditions: DLS at 25° C. Here is the method:
as §4

The subject of series [7] is Ca9-22 cells. In words: In vitro cytotoxicity assay (WST-1), Ca9-22. In kind it is cell-based, human. Here is the method: as §5, §6
(In general: Formazan colour is commonly taken as a measure of viable cells.)

B1: EGFR-s10: soluble scFv generated from phage clone EGFR-PC10; amino acid sequence SEQ ID NO: 9 (protein)
scFv: EVQLVESGGGLVQPGGSLRLSCAASGFNLSSFWMSWVRQAPGKGLEWVANINHDGSDKYYVDSVKGRFSISRDNTKNSVYLQMDSLRGEDTAVYYCAKGKSLYDGSALDMWGQGTMVTVSSGGGGSGGGGSGGGGSDIVMTQSPSTLSASVGDRVTITCRASQTIGRWLAWYQQKPGKAPKLLIYGASSLQSGVPSRFSGSGSGTDFTLTISSLQPEDFATYYCQQSYSTLWTFGQGTKLEIKR
modifications: Whole scFv
Regarding B1, in the series with marine EGFR-Ex-Fc, the “recognition of marine EGFR-Ex-Fc” value is “recognized”. For the same molecule, the binding to cells entry in the series on Ca9-22 cells [1] (Ca9-22, 4° C.) is given as “bound to the cell membrane”; with FaDu cells [2] (4° C.), “bound to the cell membrane”. Moreover, the internalization result is reported as “Internalization of EGFR-s10 (scFvs) as cytoplasmic aggregates was observed” in the series with Ca9-22 cells [1] (Ca9-22, 37° C.) and “Internalization of EGFR-s10 (scFvs) as cytoplasmic aggregates was observed” in the series with FaDu cells [2] (37° C.). Besides, the “recognition of human EGFR-Ex-Fc” value in the series with human EGFR-Ex-Fc was “recognized”.

B2: EGFR-s10-LV (conjugate)
scFv: EVQLVESGGGLVQPGGSLRLSCAASGFNLSSFWMSWVRQAPGKGLEWVANINHDGSDKYYVDSVKGRFSISRDNTKNSVYLQMDSLRGEDTAVYYCAKGKSLYDGSALDMWGQGTMVTVSSGGGGSGGGGSGGGGSDIVMTQSPSTLSASVGDRVTITCRASQTIGRWLAWYQQKPGKAPKLLIYGASSLQSGVPSRFSGSGSGTDFTLTISSLQPEDFATYYCQQSYSTLWTFGQGTKLEIKR
modifications: left off: small tags and cut ends
B2 showed a ζ-potential in series [3] of −29.2 mV. Moreover, in the series with FaDu cells [4], the “IC50 relative to non-targeting liposome” value came to 0.21 fold. In series [5], the “mean tumor volume compared to NTL vinorelbine” value is reported as “smaller” and the weight loss entry was “no weight loss was observed”. Also, the Z-average in [6] is 115.2 nm·days. For the same molecule, the “IC50 relative to non-targeting liposome” value in the series on Ca9-22 cells [7] is 0.14 fold.

B3: EGFR-s10-LD (conjugate)
scFv: EVQLVESGGGLVQPGGSLRLSCAASGFNLSSFWMSWVRQAPGKGLEWVANINHDGSDKYYVDSVKGRFSISRDNTKNSVYLQMDSLRGEDTAVYYCAKGKSLYDGSALDMWGQGTMVTVSSGGGGSGGGGSGGGGSDIVMTQSPSTLSASVGDRVTITCRASQTIGRWLAWYQQKPGKAPKLLIYGASSLQSGVPSRFSGSGSGTDFTLTISSLQPEDFATYYCQQSYSTLWTFGQGTKLEIKR
modifications: left off: small tags and cut ends
B3 registered a ζ-potential in series [3] of −28.1 mV. The figures for the “IC50 relative to non-targeting liposome” value with FaDu cells [4] and with Ca9-22 cells [7] were 0.33 fold and 0.0028 fold, respectively. Also, in series [6], the Z-average amounted to 125 nm·days.

The record behind these values is patent US12527879B2, “Ligands targeted to epidermal growth factor receptors and compositions for use in treating tumors” (priority 2019, dated 2026).
